Source: patent publication US20240166768A1 (YEDA RESEARCH AND DEVELOPMENT, published 2024)

Tests used:
[1] = biological target: T1, ROI-1 peptide of MMP14 (I-A loop); experiment: peptide validation ELISA: antibody plated, biotinylated peptide titrated, streptavidin-HRP; the concentration is that of the peptide
T1 construct: also called 'ROI-peptide'; 'Peptide (ROI)'

BSA [2] = biological target: T2, BSA (bovine, UniProt P02769); experiment: ELISA heatmap, OD630
Protocol: (§1) ELISA reactions were carried out using flat-bottom MaxiSorp™ 96-well plates (Invitrogen). Antigen coating was performed in PBS at 1001 per well and left overnight at 4° C. For standard dose response ELISA assays, antigens were plated at a concentration of 1 μg/ml. For comparative ELISA assays with multiple antigen targets, antigens were plated at a constant molar concentration of 50 nM. The plates were washed 5 times with washing buffer (1×PBS with 0.05% Tween-20 (Sigma-Aldrich)) and incubated with 1001 blocking buffer (1×PBS with 1% BSA) for 1 h at room temperature. The blocking solution was subsequently replaced by serial dilutions of either mono- or polyclonal antibodies or serum samples for 2.5 h at RT. For standard dose response ELISA assays, antibodies were introduced over a range of dilutions whereas for ELISA screens, antibodies were introduced at 100 nM. Serum samples were assayed at a dilution of 1:100. Plates were washed 5 times with washing buffer and then incubated with anti-human IgG secondary antibody conjugated to horseradish peroxidase (HRP) (Jackson Immuno Research) in PBS at a 1:5,000 dilution. After washing the plates for additional 5 times, the plates were developed using TMB (Thermo Fisher) and absorbance was measured at 630 nm with an ELISA microplate reader (Synergy HTX plate reader, Biotek).
Strikingly, in 3/4 patients, monoclonal antibodies that bound MMP14 with various degrees of effectiveness and specificity were detected, confirming the analysis using polyclonal patient-derived antibodies. In order to further examine the specificity of the monoclonal antibodies, the binding activity of the antibodies was tested in different dilutions by ELISA.

BSA [3] = biological target: T2, BSA; experiment: dose-response ELISA, O.D. 630
Protocol: as §1, with “Biotek). […]” for “Biotek).”

T2 sequence (P02769 25-607 limits assumed): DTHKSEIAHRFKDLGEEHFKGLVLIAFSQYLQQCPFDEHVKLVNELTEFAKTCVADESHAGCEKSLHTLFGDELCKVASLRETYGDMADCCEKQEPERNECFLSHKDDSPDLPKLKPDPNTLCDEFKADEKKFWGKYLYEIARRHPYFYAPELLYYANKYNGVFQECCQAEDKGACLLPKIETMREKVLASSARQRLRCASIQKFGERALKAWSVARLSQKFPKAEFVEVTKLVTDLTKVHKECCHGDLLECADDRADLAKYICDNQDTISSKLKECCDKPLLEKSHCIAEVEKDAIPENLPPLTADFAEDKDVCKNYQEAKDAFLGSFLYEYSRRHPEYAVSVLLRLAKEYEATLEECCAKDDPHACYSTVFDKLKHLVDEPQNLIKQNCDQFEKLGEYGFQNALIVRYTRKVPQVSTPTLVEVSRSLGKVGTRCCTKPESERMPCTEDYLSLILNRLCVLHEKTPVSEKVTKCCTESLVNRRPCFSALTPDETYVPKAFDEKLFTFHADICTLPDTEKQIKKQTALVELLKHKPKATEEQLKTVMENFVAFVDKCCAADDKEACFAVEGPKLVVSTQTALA

Binder	EC50 (read off the curve) [1] [µg/mL]	binding result (BSA [2])	also measured
T13 (antibody, V domains shown, The digit 1 is dropped in many places of the text; also called mAb T13) VH: EVQLVESGGGLVQPGGSLRLSCAASGFIFSKHDMYWVRQRPGKGLEWVSRIGDAGDTYYAGSVKGRFTIFRENAKNTLYFQMNRLTDGDTAVYYCGRGMAVAGFPLDVWGRGTRVTVTS VL: EIVMTQSPATLSVSPGERATLSCRASQNIHINLAWYQQKPGQAPRLIIYAASTRAAGIPARFSASGSGTEFTLTISSLQSEDFAVYYCQQFNPWSPWTFGQGTKVEVK	~2	–	–
T17 (antibody, V domains shown) VH: EVQLVESGGGLVQPGGSLTLSCTASGFTYFGFAMTWVRQPPGKGLEWISSINLLSGTTYYVDSVKGRFTISRDNSKNTVFLQMKGLTAEDTAVYYCAKVGATQDLHYFDFWGQGTLVTVSS VL: DIQMTQSPSTLSASVGDRVTITCRASQSVYRWLAWYQQKPGEAPKLLVYGAFSLQSGVPPRFSGSGYGTEFTLTISSLQPDDFATYYCQQYNSHSTFGQGTKVEVK	–	no binding (tested: 100 nM)	–
T13-GL (antibody, human IgG1, V domains shown, also called germline version of T13) VH: EVQLVESGGGLVQPGGSLRLSCAASGFTFSSYDMHWVRQATGKGLEWVSAIGTAGDTYYPGSVKGRFTISRENAKNSLYLQMNSLRAGDTAVYYCARGIAVAGFPLDVWGKGTTVTVSS VL: not shown	–	–	binding result (BSA [3]): no binding (tested: about 500 nM)
T26 (antibody, V domains shown) VH: QVQLVQSGSEVKKPGASVKVSCKASGYTFTSNGISWVRQAPGQGLEWMGWISAYNGNTNYAQKFQGRVSLTTDTSTSTAYMELRNLTSDDTARYYCARSRGHYGDYLYGYWGQGTLVTVSS VL: QSVLTQPPSVSGAPGQRVTISCTGSSSNIGAGYDVHWYQQLPGTAPKLLIHGNSNRPSGVPDRFSGSKSGTSASLAITGLQAEDEADYYCQSFDSSLSGSVVFGGGTKLTVL	–	no binding (tested: 100 nM)	–
T12 (antibody, human IgG1, V domains shown) VH: EVQLVESGGGLVQPGGSLRLSCAASGFTFNNHDMHWVRQVTGKGLEWVSSIGNFGDTYYSGSVKGRFTISRQDAKNSLYLQMNRLRVGDTAVYYCARGRAVAGNPLDVWGKGTTVTVSS VL: EIVMTQSPATLSVSPGETATLSCRANQTLYNNLAWYQQKPGQAPRLLIYSGSTRATGIPARFSGSGSGTEFSLTISSLQSEDFAVYYCQHYTPWPPYTFGQGTKVDFK	~4	–	–
T22 (antibody, V domains shown) VH: QVQLVQSGAEVKKPGSSVKVACKASGGTFSRSAISWVRQAPGQGLEWMGGIIRIFNTADYAQKFQGRVTMSADESTSTAYMELSSLRSEDTAVYYCATSSLSDIVVAEGAFVDHYFGMDVWGQGTTVTVSS VL: not shown	–	no binding (tested: 100 nM)	–
